Measurements taken from paper PMC2481281.
pIC50: −log10 of the molar value. One block for each substance: values may come before it.

Columns and labels:
[1] = biological target: γ-wt C9 (CXCL12γ with C-terminal bovine rhodopsin C9 tag) (mouse); experiment: SDS-PAGE and immunoblot; lysates of SFV-infected BHK cells separated by SDS-PAGE and probed with the K15C mAb; dimeric forms seen
[2] = biological target: α-wt C9 (CXCL12α with C-terminal bovine rhodopsin C9 tag) (mouse) (UniProt P40224); experiment: as above
[3] = biological target: CXCL12γ protein, chemically synthesized (γ-wt) (mouse); experiment: SDS-PAGE and immunoblot; chemically synthesized chemokines separated by SDS-PAGE and probed with the K15C mAb; dimeric forms seen
[4] = biological target: CXCR7 on CXCR7-transduced A0.01 cells (UniProt P25106); experiment: flow cytometry on cells; competition: 1 nM α-biot on CXCR7-transduced A0.01 cells with increasing concentrations of untagged chemokine, washed, labelled with 1 µg/ml streptavidin-PE; normalised to binding without competitor; one-site non-linear regression
UniProt P25106, sequence (P25106 whole entry): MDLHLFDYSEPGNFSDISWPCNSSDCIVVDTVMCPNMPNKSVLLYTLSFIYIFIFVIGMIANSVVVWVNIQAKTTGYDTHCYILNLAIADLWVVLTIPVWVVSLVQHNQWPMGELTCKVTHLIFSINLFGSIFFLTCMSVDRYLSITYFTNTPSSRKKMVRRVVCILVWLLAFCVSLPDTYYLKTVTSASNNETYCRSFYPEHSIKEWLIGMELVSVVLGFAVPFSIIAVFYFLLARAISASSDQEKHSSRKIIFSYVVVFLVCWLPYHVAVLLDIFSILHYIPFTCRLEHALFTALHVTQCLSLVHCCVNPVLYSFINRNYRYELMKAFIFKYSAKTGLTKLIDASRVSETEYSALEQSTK

stoichiometry N [1]: 2
Substance: γ-wt C9 (CXCL12γ with C-terminal bovine rhodopsin C9 tag) (ligand)

stoichiometry N [2]: 2
Substance: α-wt C9 (CXCL12α with C-terminal bovine rhodopsin C9 tag) (from UniProt P40224-2 22-93) (ligand)

stoichiometry N [3]: 2 | pIC50 [4]: 7.98
Substance: CXCL12γ protein, chemically synthesized (γ-wt) (ligand)
